Experimental data: patent US20200339657A1, “PEPTIDES AND COMBINATION THEREOF FOR USE IN THE IMMUNOTHERAPY AGAINST CANCERS” (Immatics Biotechnologies GmbH, priority 2017, published 2020)

What was measured:
CD8+ T cells = assay: In vitro immunogenicity: T-cell priming with aAPCs loaded with peptide/MHC and anti-CD28, multimer readout; type: cell-based, human
HLA-A*02:01 = HLA-A*02:01 (Homo sapiens, UniProt P04439, D140Y/D185E/D98H/E176V/E277Q/G131W/G231S/I119V/I121R/I166T/I218V/L300P/L318F/N151K/N90K/P208A/P217A/Q86G/Q94H/R138H/R169H/T345S); assay: MHC binding assay (UV-ligand exchange, β2m ELISA); conditions: for Peptide exchange: peptide exchange yield, binding to HLA-A*02:01
HLA-A*24:02 = HLA-A*24:02 (Homo sapiens, UniProt P04439, D101N/D140Y/D185E/E176V/E190D/F33S/G103R/G107R/I119L/I121M/I306V/K335N/L105A/L180Q/L300P/N151K/N90K/Q86E/Q94H/R106L/R138H/R89G/T104I/T345S/V100E/W191G/Y123F); assay: MHC binding assay (UV-ligand exchange, β2m ELISA)

Row | Substance | Peptide exchange (HLA-A*02:01) | Wells positive [%] (CD8+ T cells; HLA A*02) | also measured
1 | 38 (VMLNSNVLL; listed as Homo sapiens) [compound 38] | “++++” (>75% = ++++) | “+” (<20% = +) | –
2 | 39 (YLLPSVVLL; listed as Homo sapiens) [compound 39] | “++++” (>75% = ++++) | – | –
3 | 40 (KIDDIWNLEV; listed as Homo sapiens) [compound 40] | “+++” (>50 = +++) | – | –
4 | 41 (SLQDTKITL; listed as Homo sapiens) [compound 41] | “+++” (>50 = +++) | – | –
5 | 42 (KMMALVAEL; listed as Homo sapiens) [compound 42] | “++++” (>75% = ++++) | “++++” (>= 70% = ++++) | –
6 | 43 (GLMTIVTSL; listed as Homo sapiens) [compound 43] | “++++” (>75% = ++++) | “++” (20%-49% = ++) | –
7 | 44 (SQTGFVVLV; listed as Homo sapiens) [compound 44] | “++” (>20% = ++) | – | –
8 | 45 (KLLDEVTYL; listed as Homo sapiens) [compound 45] | “+++” (>50 = +++) | – | –
9 | 46 (VLITGLPLI; listed as Homo sapiens) [compound 46] | “++++” (>75% = ++++) | – | –
10 | 47 (YQDSWFQQL; listed as Homo sapiens) [compound 47] | “+++” (>50 = +++) | – | –
11 | 50 (ELMPRVYTL; listed as Homo sapiens) [compound 50] | “+++” (>50 = +++) | “+” (<20% = +) | –
12 | 51 (ALAAELNQL; listed as Homo sapiens) [compound 51] | “+++” (>50 = +++) | – | –
13 | 52 (YVSSGEMMV; listed as Homo sapiens) [compound 52] | “+++” (>50 = +++) | – | –
14 | 53 (LLMTSLTES; listed as Homo sapiens) [compound 53] | “+++” (>50 = +++) | – | –
15 | 54 (YLPPTDPRMSV; listed as Homo sapiens) [compound 54] | “++++” (>75% = ++++) | – | –
16 | 138 (KYLSIPTVF; listed as Homo sapiens) [compound 138] | – | – | Wells positive [%] (CD8+ T cells; HLA A*24): “+” (<20% = +); Peptide exchange (HLA-A*24:02; peptide exchange yield, binding to HLA-A*24:02): “++++” (>75% = ++++)
17 | DYIPYVFKL (listed as Homo sapiens) [SEQ ID NO: 268] | – | – | bind to HLA-A*24 (HLA-A*24:02): binds to HLA-A*24
18 | KTLGKLWRL (listed as Homo sapiens) [SEQ ID NO: 267] | – | – | bind to HLA-A*02 (HLA-A*02:01): binds to HLA-A*02

The next lines start with results.

Row | Peptide exchange (HLA-A*02:01) | Substance | Wells positive [%] (CD8+ T cells; HLA A*02) | also measured
19 | “+++” (>50 = +++) | 55 (RLWQIQHHL; listed as Homo sapiens) [compound 55] | – | –
20 | “++++” (>75% = ++++) | 56 (FLNQIYTQL; listed as Homo sapiens) [compound 56] | “+++” (50%-69% = +++) | –
21 | “++++” (>75% = ++++) | 57 (GLTGVIMTI; listed as Homo sapiens) [compound 57] | “++++” (>= 70% = ++++) | –
22 | “++++” (>75% = ++++) | 59 (KLHEIYIQA; listed as Homo sapiens) [compound 59] | – | –
23 | “++++” (>75% = ++++) | 60 (GLPDFVKEL; listed as Homo sapiens) [compound 60] | “++” (20%-49% = ++) | –
24 | “++++” (>75% = ++++) | 61 (RLFGLFLNNV; listed as Homo sapiens) [compound 61] | – | –
25 | “++++” (>75% = ++++) | 249 (ALFPERITV; listed as Homo sapiens) [compound 249] | “++” (20%-49% = ++) | –
26 | “+” (>10% = +) | 250 (KMILKMVQL; listed as Homo sapiens) [compound 250] | “++” (20%-49% = ++) | –
27 | “+++” (>50 = +++) | 251 (RLASRPLLL; listed as Homo sapiens) [compound 251] | – | –
